Laboratory results: patent publication US20260049134A1 (UNIVERSITY OF FLORIDA RESEARCH FOUNDATION, published 2026)

Key:
ICAM1-Fc (R&D Systems) = molecular target: T1, ICAM1-Fc (R&D Systems) (human, UniProt P05362 28-480); assay: ELISA on coated ICAM1-Fc
T1 construct: Bought; also called ICAM-1/CD54; not shown: Fc of the bought fusion protein
Description: (§1) Recombinant purified ECDs (50-150 ng) of each putative target protein were coated, incubated with 150 ng of the indicated primary antibody, and binding was detected using a peroxidase-conjugated anti-human Fab secondary antibody. Heatmap represents averages of technical triplicates. (8B) Target validation via siRNA knockdown. H929 cells were transfected with siRNA pools targeting the putative antibody targets ICAM1, CADM1, and PTPRG. Cells were then subjected to cognate IgG binding analysis via flow cytometry. (NT, non-targeting siRNA).
(§2) ELISA ELISA was conducted as described previously. Briefly, 50-150 ng of antigen was coated overnight in half-area 96-well plates at 4° C., blocked with 3% BSA at 37° C. for 1 h, and 150 ng of chimeric rabbit/human IgG1 was added, incubating for 2 h at 37° C. […] After incubating at 37° C. for 15 min-1 h (depending on intensity of controls), data were acquired using a SpectraMax M5 plate reader (Molecular Devices).

[1] = molecular target: T2, GARS, endogenous in H929 multiple myeloma cells (human, UniProt P41250 37-739, limits assumed); assay: flow cytometry, H929 + CADM1 siRNA; None 0.89; surface target GARS putative
T2 construct: Native protein pulled down from H929 lysates; also called Glycyl-tRNA synthetase; GlyRS
T2 sequence: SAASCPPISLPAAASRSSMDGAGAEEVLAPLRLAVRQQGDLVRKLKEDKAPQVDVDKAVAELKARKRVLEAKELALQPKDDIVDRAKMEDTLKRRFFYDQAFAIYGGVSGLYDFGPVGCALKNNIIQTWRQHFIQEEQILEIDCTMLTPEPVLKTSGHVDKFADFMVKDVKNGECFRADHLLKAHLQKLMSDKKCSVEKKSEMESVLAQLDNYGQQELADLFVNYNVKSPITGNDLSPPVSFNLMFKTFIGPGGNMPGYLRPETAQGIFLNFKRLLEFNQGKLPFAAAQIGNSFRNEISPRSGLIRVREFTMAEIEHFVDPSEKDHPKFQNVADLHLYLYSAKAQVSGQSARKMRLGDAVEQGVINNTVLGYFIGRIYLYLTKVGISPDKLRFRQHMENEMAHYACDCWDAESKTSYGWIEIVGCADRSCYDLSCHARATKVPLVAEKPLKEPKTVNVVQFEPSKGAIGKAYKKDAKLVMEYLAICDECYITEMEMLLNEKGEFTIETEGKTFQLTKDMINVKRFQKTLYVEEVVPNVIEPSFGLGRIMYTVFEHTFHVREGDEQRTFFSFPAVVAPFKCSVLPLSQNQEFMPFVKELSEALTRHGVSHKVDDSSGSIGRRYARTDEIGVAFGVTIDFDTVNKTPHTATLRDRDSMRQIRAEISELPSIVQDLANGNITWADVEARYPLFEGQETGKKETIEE

[2] = molecular target: T2, GARS, endogenous in H929 multiple …; assay: flow cytometry, H929 + GARS siRNA (siRNA against the putative target); None 452
[3] = molecular target: T2, GARS, endogenous in H929 multiple …; assay: flow cytometry, H929 + vehicle; None 2.74; surface target GARS putative
[4] = molecular target: T2, GARS, endogenous in H929 multiple …; assay: flow cytometry, H929 + CDH18 siRNA; None 0.19; surface target GARS putative
[5] = molecular target: T2, GARS, endogenous in H929 multiple …; assay: flow cytometry, H929 + CDH18 siRNA; None 443; surface target GARS putative
IL13RA1 = molecular target: T3, IL13RA1; assay: ELISA on coated IL13RA1-Fc-His
T3 construct: coated protein in the ELISA; also called IL13RA1-Fc-His (R&D Systems)
T3 chain: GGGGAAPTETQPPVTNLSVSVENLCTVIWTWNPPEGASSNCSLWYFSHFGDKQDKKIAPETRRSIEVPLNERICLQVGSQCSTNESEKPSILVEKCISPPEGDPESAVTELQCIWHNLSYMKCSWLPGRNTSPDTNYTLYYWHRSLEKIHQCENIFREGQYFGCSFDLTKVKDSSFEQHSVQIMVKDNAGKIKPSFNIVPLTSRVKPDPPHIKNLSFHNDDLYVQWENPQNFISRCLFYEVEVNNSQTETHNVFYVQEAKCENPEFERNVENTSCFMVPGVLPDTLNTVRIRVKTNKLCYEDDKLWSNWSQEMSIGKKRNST
Description: as §1, §2

SLAMF7 = molecular target: T4, SLAMF7; assay: ELISA on coated SLAMF7-StrepTag
T4 construct: coated protein in the ELISA; also called SLAMF7-StrepTag
T4 chain: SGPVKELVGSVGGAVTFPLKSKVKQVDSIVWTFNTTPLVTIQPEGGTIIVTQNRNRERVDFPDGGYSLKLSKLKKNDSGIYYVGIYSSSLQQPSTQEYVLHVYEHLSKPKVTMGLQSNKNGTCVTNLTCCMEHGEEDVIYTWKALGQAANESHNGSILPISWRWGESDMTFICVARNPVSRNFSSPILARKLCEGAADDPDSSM
Description: as §1, §2

T1 sequence (P05362 28-480): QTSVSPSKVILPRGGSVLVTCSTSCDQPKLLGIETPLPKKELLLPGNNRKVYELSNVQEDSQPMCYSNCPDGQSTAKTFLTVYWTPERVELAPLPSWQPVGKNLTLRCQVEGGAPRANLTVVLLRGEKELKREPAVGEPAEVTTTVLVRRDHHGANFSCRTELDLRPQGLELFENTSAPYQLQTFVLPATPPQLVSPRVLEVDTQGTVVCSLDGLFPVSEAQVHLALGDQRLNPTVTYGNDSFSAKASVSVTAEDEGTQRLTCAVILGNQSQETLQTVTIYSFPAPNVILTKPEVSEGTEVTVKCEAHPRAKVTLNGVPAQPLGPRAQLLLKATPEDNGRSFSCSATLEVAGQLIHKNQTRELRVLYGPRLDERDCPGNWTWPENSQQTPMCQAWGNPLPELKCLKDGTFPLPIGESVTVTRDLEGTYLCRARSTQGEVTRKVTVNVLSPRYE

B1: HW-56 chimeric rabbit-human IgG1 LA/LA/PG (antibody, V domains shown)
VH: QSVKESEGGLFKPTDTLTLTCTASGFTVSTNAVTWVRQAPGNGLEYIGTIGRSGSAYFASWAKRRSTLTRDINLNTVTLKMTSLTAADTATYFCVRGSPGYRTAISIWGPGTLVTISS
VL: AVMTQTPSSTSAAVEGTVTINCQASQSISNRLSWFQQKPGQPPKLLIYQASTLASGVPSRFKGSGSGTEFTLTISGVQREDAATYYCLGSYSSSDASFGGGTKLEIKR
notes: Fc-silenced (L234A/L235A/P329G) IgG1, kappa; Alexa Fluor 647-labeled in single-step flow cytometry; Cluster C-45
binding result (ICAM1-Fc (R&D Systems)): no binding (tested: 150 ng IgG1 per well) | Cells stained (%) [1]: 99.6% | mAb binding (MFI) [2]: 413000 | Cells stained (%) [3]: 99.5% | Cells stained (%) [4]: 99.9% | mAb binding (MFI) [5]: 400000

B2: HW-28 chimeric rabbit-human IgG1 LA/LA/PG (antibody, V domains shown)
VH: QKQLVESGGRLVTPGTPLTLTCTASGFSLSSNAMSWVRQAPGEGLQWIGTISSGGSTYYASWAKGRFTISKTSTTVTLKMTSLTTEDTATYFCARGADLHRLWGPGTLVTVSS
VL: SFVLTQPASVQVNLGQTVSLTCTGKPLSRSFASWYQQKPGQAPVLVIYRDTSRPSGVPDRFSGSSSGNTATLTISGAQAGDEADYYCATSDGSGSSYQYVFGGGTQLTVTG
notes: Fc-silenced (L234A/L235A/P329G) IgG1, lambda; Alexa Fluor 647-labeled in single-step flow cytometry; Cluster C-45
binding result (ICAM1-Fc (R&D Systems)): no binding (tested: 150 ng IgG1 per well) | Cells stained (%) [1]: 98.5% | mAb binding (MFI) [2]: 170000 | Cells stained (%) [3]: 98.6% | Cells stained (%) [4]: 99.4% | mAb binding (MFI) [5]: 164000

B3: HW-81 chimeric rabbit-human IgG1 LA/LA/PG (antibody, V domains shown)
VH: QKQLVESGGGLVTPGGTLTLTCTVSGFSLSSNGVSWVRQAPGKGLEYIGLIRSIGSTYYATWAKGRFTISKTSTTVDLKITSPTTEDTATYFCARGGYRNGFKLWGPGTLVTVSS
VL: QPVLTQSPSVSAALGASAKLTCTLSSAHKTYYIEWYQQQHPGKAPRYLMQLQSDGSYTKGTGVPDRFSGSSSGADRYLIISSVQAEDEADYICGVIDSAVYVFGGGTQLTVTG
notes: as for B2
binding result (ICAM1-Fc (R&D Systems)): no binding (tested: 150 ng IgG1 per well) | Cells stained (%) [1]: 99.8% | binding result (IL13RA1): no binding (tested: 150 ng IgG1 per well) | mAb binding (MFI) [2]: 216000 | binding result (SLAMF7): no binding (tested: 150 ng IgG1 per well) | Cells stained (%) [3]: 99.7% | Cells stained (%) [4]: 99.3% | mAb binding (MFI) [5]: 193000

B4: HW-16 chimeric rabbit-human IgG1 LA/LA/PG (antibody, V domains shown)
VH: QSLEESGGRLVTPGTPLTLTCTASGFSLSSYAMSWVRQAPGKGLEWIGTMPTGGGTYYASWAKGRFTISKTSTTVDLQITSPTTEDTATYFCAKHWNIWGPGTLVTISS
VL: DIVLTQTPSSTSTAVGDTVTINCRASQSIGRNLAWFQQKPGQPPKLLIYRASNLASGVPSRFKGSGSRTQFTLTISGVQREDAATYYCLGSYSSSDTAFGGGTELEILR
notes: as for B1
binding result (ICAM1-Fc (R&D Systems)): no binding (tested: 150 ng IgG1 per well) | Cells stained (%) [1]: 99% | mAb binding (MFI) [2]: 155000 | Cells stained (%) [3]: 99.1% | Cells stained (%) [4]: 98.6% | mAb binding (MFI) [5]: 174000
